Laboratory results published in patent publication US20050042227A1.

Molecular target: LRP
Assay: cell-based or functional assay

B1: RAP-IDU fusion (human RAP fused N-terminally to human alpha-L-iduronidase) (protein)
chain: SYSREKNQPKPSPKRESGEEFRMEKLNQLWEKAQRLHLPPVRLAELHADLKIQERDELAWKKLKLDGLDEDGEKEARLIRNLNVILAKYGLDGKKDARQVTSNSLSGTQEDGLDDPRLEKLWHKAKTSGKFSGEELDKLWREFLHHKEKVHEYNVLLETLSRTEEIHENVISPSDLSDIKGSVLHSRHTELKEKLRSINQGLDRLRRVSHQGYSTEAEFEEPRVIDLWDLAQSANLTDKELEAFREELKHFEAKIEKHNHYQKQLEIAHEKLRHAESVGDGERVSRSREKHALLEGRTKELGYTVKKHLQDLSGRISRARAEAETGEAPHLVHVDAARALWPLRRFWRSTGFCPPLPHSQADQYVLSWDQQLNLAYVGAVPHRGIKQVRTHWLLELVTTRGSTGRGLSYNFTHLDGYLDLLRENQLLPGFELMGSASGHFTDFEDKQQVFEWKDLVSSLARRYIGRYGLAHVSKWNFETWNEPDHHDFDNVSMTMQGFLNYYDACSEGLRAASPALRLGGPGDSFHTPPRSPLSWGLLRHCHDGTNFFTGEAGVRLDYISLHRKGARSSISILEQEKVVAQQIRQLFPKFADTPIYNDEADPLVGWSLPQPWRADVTYAAMVVKVIAQHQNLLLANTTSAFPYALLSNDNAFLSYHPHPFAQRTLTARFQVNNTRPPHVQLLRKPVLTAMGLLALLDEEQLWAEVSQAGTVLDSNHTVGVLASAHRPQGPADAWRAAVLIYASDDTRAHPNRSVAVTLRLRGVPPGPGLVYVTRYLDNGLCSPDGEWRRLGRPVFPTAEQFRRMRAAEDPVAAAPRPLPAGGRLTLRPALRLPSLLLVHVCARPEKPPGQVTRLRALPLTQGQLVLVWSDEHVGSKCLWTYEIQFSQDGKAYTPVSRKPSTFNLFVFSPDTGAVSGSYRVRALDYWARPGPFSDPVPYLEVPVPRGPPSPGNP
For B1, the Kuptake ratio (fusion/enzyme), RAP-IDU against rhIDU, fibroblast (ratio (fusion/enzyme)) was 25, the Uptake ratio (fusion/enzyme), RAP-IDU against rhIDU, fibroblast, 5 nM (ratio (fusion/enzyme)) was 7 and the Uptake ratio (fusion/enzyme), RAP-IDU against rhIDU, fibroblast, 50 nM (ratio (fusion/enzyme)) was 27. For the same binder, the Uptake ratio (fusion/enzyme), RAP-IDU against rhIDU, fibroblast, saturation (ratio (fusion/enzyme)) was 43.
